Assay results: the supplement of paper PMC11865577

Assays:
Experiment in all cases: pull-down binding Z-score (relative to library population); higher = stronger binding
[1] = test system: G-clamp-N3 (biotin conjugate); details: RNA library: Library-1 (pre-miRNA loops + repeats)
How it was run: (§1)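 Biotin-conjugated small molecule (100 pmol) on streptavidin beads was incubated with 1 μg of heat-folded Cy5- or Cy3-end-labelled RNA library in phosphate/NaCl/KCl buffer at 25 °C for 60 min. Following three washes, RNA was eluted with hot SDS and hybridised at 55.5 °C for 20 h to a DNA barcode microarray. The binding value is a Z-score computed from the library mean and standard deviation, after subtraction of beads without compound and averaging of barcoded replicate probes with the highest and lowest excluded.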

[2] = test system: TO-3-N3 (biotin conjugate); details: RNA library: Library-2
How it was run: as §1

[3] = test system: TO-3-N3-2 (biotin conjugate); details: RNA library: Library-2
How it was run: as §1

TO-N3 (biotin conjugate) = details: RNA library: Library-2
How it was run: as §1

[4] = test system: TO-N3-2 (biotin conjugate); details: RNA library: Library-2
How it was run: as §1

Row | Sequence | pull-down binding Z-score [1] | pull-down binding Z-score [2] | pull-down binding Z-score [3] | pull-down binding Z-score (TO-N3 (biotin conjugate)) | pull-down binding Z-score [4]
1 | CAGGCAGUGGAGUUACUU [hsa-mir-600] | -1.07 | 0.683 | 0.557 | 1.01 | 1
2 | UUGAACUUCAUUUCUCAUGCUCA [hsa-mir-6870] | -1.6 | -0.278 | 0.277 | -0.104 | 0.145
3 | GCAGCUAGUAAUAUGAGCCCAGUUGC [hsa-mir-153-2] | -0.831 | 0.0352 | -0.0986 | -0.011 | 0.128
4 | UCCAGUGUGGCUCGGAGGCUGGA [hsa-mir-139] | 3.31 | 0.91 | 0.381 | 1.23 | 1.18
5 | CCCGGCCGGCAGCCCCCGGCCUUAAAGCGCGGG [hsa-mir-4741] | 0.653 | -0.112 | 0.194 | 0.228 | 2.16
6 | UAGUACAGGUGAGAUUGUACUG [hsa-mir-3920] | 0.5 | -0.707 | -0.323 | -0.888 | -0.564
7 | AUCCAGUCCACUUAAUUCUGAGAAAGUCCACAGACUGGAUCGGGUCUUGGAUUUUAGCUGGAUUCAU [hsa-mir-6082] | -0.0473 | -0.796 | -0.223 | -0.258 | 0.4
8 | UUUGUGUAAGGAAUUUUGUGGUCACAAA [hsa-mir-10a] | 1.29 | -1.06 | -0.175 | -1.25 | -0.825
9 | GUCACAAAUUCAAAUAAAGUGAG [hsa-mir-4693] | -1.04 | 1.05 | 0.544 | 1.03 | 0.598
10 | UGUUCGUUUUGCUCAUGUCGAAUC [hsa-mir-487b] | -0.817 | -0.794 | -0.391 | -0.701 | -0.133
11 | AUUUCCCAAAGUUGGGAAAA [hsa-mir-320b-2] | -1.23 | 0.0303 | -0.231 | -0.432 | -1.08
12 | GCUUGCUGUUCCUCUCAACAGUAGUCAGGAAGC [hsa-mir-129-1] | -0.381 | -0.169 | -0.186 | -0.219 | -0.245
13 | CCAUGUAAUCUUUGG [hsa-mir-1302-5] | -0.454 | 0.507 | 0.112 | 0.454 | -0.0743
14 | GGCAUCAGAGGACAGCCGCCUGGUGCC [hsa-mir-4641] | 0.915 | 0.287 | -0.0706 | 0.327 | 0.46
15 | UGAGCAGGCCCAGAACCCAGCUCGUGCUCA [hsa-mir-6794] | 0.169 | 0.387 | -0.114 | 0.56 | 0.805
16 | CCUUCUAAUGAGUAUGCUUAACUUGGUAGAAGG [hsa-mir-3914-1] | 0.508 | -0.108 | -0.0963 | -0.141 | -0.858
17 | GUUGGAUGGUCUAAUUGUGAAGCUCCUAAC [hsa-mir-141] | -0.549 | -0.103 | -0.259 | -0.138 | -0.0552
18 | CAGAUACUUUUUAAAAUUUGUUUGAGUUGAGGCAGAUUAAAUAUCUG [hsa-mir-4742] | 0.164 | -0.76 | 0.104 | -0.82 | -0.673
19 | UCUCAAUCCAUUCAUAUUGAAA [hsa-mir-3662] | -1.04 | 0.563 | -0.33 | 0.226 | -0.68

Row | Sequence | pull-down binding Z-score [1] | pull-down binding Z-score [2] | pull-down binding Z-score [3] | pull-down binding Z-score (TO-N3 (biotin conjugate)) | pull-down binding Z-score [4]
20 | GGAGACGGGUCUUUCUC [hsa-mir-1208] | -1.52 | 0.816 | 0.466 | 1.04 | 0.758
21 | UGCACCAGUUCUGGCCGCUGGUGGA [hsa-mir-4683] | -0.459 | -0.16 | -0.295 | 0.104 | 0.856
22 | AGAUGUGUUUCCAUUCCACUAUCAUAAU [hsa-mir-365a] | -0.718 | -0.141 | -0.128 | -0.0846 | -0.292
23 | UGGAGGCUGACCUCUUACUUUCGGUCGGUCUUCUU [hsa-mir-4258] | -1.13 | -0.176 | -0.43 | -0.486 | -0.435
24 | UGGUUAGCUUUUUUUUUUUUUUGAGAUGGAGUCUGGCUC [hsa-mir-8086] | -0.608 | -0.554 | 0.519 | -0.772 | -0.598
25 | GAUGGAGGAAUCACAUGAAUUCAUC [hsa-mir-2115] | 0.704 | -0.415 | -0.362 | -0.627 | -0.351
26 | CUGCUGCUGCUGCUGCUGCUGCUGCUGCUGCUGCUGCUGCUGCUGCUG [r(CUG)16] | 2.5 | -0.0148 | -0.215 | 0.778 | 1.37
27 | CUGGGAAGGGAGCUGUCCGGCUCCCCAG [hsa-mir-3155b] | 2.41 | -0.412 | -0.263 | -0.53 | -0.136
28 | GGAUUUGCUUCCUGUCACAAAUCA [hsa-mir-23a] | -1.51 | 0.391 | -0.241 | 0.271 | -0.188
29 | GGAGAGGAUCCACCUGUCCUGUCC [hsa-mir-6165] | 0.202 | 0.416 | -0.113 | 0.374 | 0.393
30 | UGGGAGUGAUCCCAACAGCUGAGCUCCCU [hsa-mir-7106] | 0.114 | 0.772 | -0.0877 | 0.756 | 0.529
31 | CAGCCUGUUGUCAAGGCUG [hsa-mir-3130-1] | -0.13 | 0.535 | 0.129 | 0.712 | -0.199
32 | CAAUGAAGACAUGAAGACCCAAUGUCUUCAUUG [hsa-mir-4529] | -0.114 | -0.88 | -0.347 | -1.17 | -1.1
33 | CUAAGCUAUGGACUGCUAUGGACUGCUAG [hsa-mir-4473] | -0.249 | -0.193 | 0.196 | 0.172 | 0.578
34 | CGGUGUGCAAAUGUGUGUGUGCGGUGUUAUGCCG [hsa-mir-4442] | -0.0251 | -0.732 | -0.663 | -0.869 | -0.316
35 | GCGGGGAACGAGGCCGUCGGCCAUUUUGUG [hsa-mir-632] | 1.04 | 1.2 | 0.912 | 1.59 | 1.58
36 | CCGCCUUUGUGCUGUCCUUGGAGGGAGG [hsa-mir-1910] | 1.1 | 0.209 | -0.0292 | 0.226 | 0.495
37 | CCAUACAAUAUUUGG [hsa-mir-1302-1] | -1.2 | -0.642 | -0.406 | -0.898 | -1.09
